Laboratory results from PMC10383791, “Evaluation of [^18F]AlF-EMP-105 for Molecular Imaging of C-Met” (Pharmaceutics, 2023).
“Also recorded” adds a separate entry of the source. Bridge positions count the residues as written; N and C are the ends. Ends that are not written are not given here. Peptide text beside a SMILES is read from it. * marks the point of attachment. NOTA = O=C(O)CN1CCN(CC(=O)O)CCN(CC(=O)*)CC1

Legend:
physchem = experiment: physchem
Description: (§1) Analytical radio-HPLC chromatograms were obtained using an Agilent 1200 series instrument equipped with a flow-ram detector (Lablogic, Sheffield, UK), and integrated using Laura 6 software (Lablogic, Sheffield, UK). Column: phenomenex Aeris^TM 3.6 µm WIDEPORE C4 200 Å. Mobile phase: 0.1% TFA H2O:MeCN 95:5 v/v to 5:95 v/v, 0.8 mL/min flow rate.
(§2) A fraction of purified [^18F]AlF-EMP-105 (10 MBq in ~10 µL EtOH) was incubated, respectively, in 1000 µL of EtOH, PBS, RPMI, human serum and EDTA (0.02% in 0.5 mM DPBS) at 37 °C, and analysed by RP-HPLC at 1, 2, 3, and 4 h time points. For stability towards radiolysis, aliquots of >2 GBq of purified [^18F]AlF-EMP-105 eluted from the cartridge in ethanol (75% in 10 mM H3P0_4) or formulated in PBS solution containing 7.5% ethanol and 5 mg/mL (10 mL) of 4-aminobenzoic acid (PABA) as radioprotectant were analysed by RP-HPLC.

in vitro = conditions: human, human serum
Description: as §1, §2

H1975 [1] = experiment: In vitro radioactive uptake with and without EMI-137 blocking; type: cell-based; conditions: ~0.74 MBq, 60 min, 37 °C, gamma counting, mean ± SEM
Description: (§3) H1975 (non-small cell lung cancer), HEPG2a (hepatocellular carcinoma), HT29 (colorectal cancer) were purchased from ATCC. OE21 (oesophageal squamous cell carcinoma) was obtained from Prof George Hanna. H1975 and OE21 cells were maintained in RPMI-1640 media (Sigma-Aldrich) supplemented with 10% fetal calf serum (Sigma-Aldrich), 1% L-glutamine, and 2% penicillin/streptomycin (Sigma-Aldrich). HEPG2a and HT29 cells were cultured in DMEM (Sigma-Aldrich) containing 10% fetal calf serum, 1% L-glutamine, and 2% penicillin/streptomycin. All cell lines were cultured at 37 °C and 5% CO2.
(§4) Cells were seeded at appropriate densities (~500,000 cells/well in a 6-well plate) and allowed to attach overnight. On the day of uptake, cells were washed three times with warm PBS and incubated with 1 mL of fresh media containing approximately 0.74 MBq of [^18F]AlF-EMP-105, with or without 100× molar equivalent of EMI-137 (blocking compound), in a humidified condition with 5% CO2 at 37 °C for 60 min. After 60 min of incubation, the cells were washed with ice-cold PBS (3 times), then lysed in 1 mL of RIPA buffer for 10 min on ice. Following this step, radioactivity from 800 µL of lysate from each sample was counted on a WIZARD2® Automatic Gamma Counter. To determine the specificity of uptake, data were expressed as a percentage of radioactivity incorporated into cells, in untreated cells compared to cells blocked with EMI-137.

HEPG2a [2] = experiment: as above; type: cell-based; conditions: HEPG2a (negative control); ~0.74 MBq, 60 min, 37 °C; gamma counting; mean ± SEM
Description: as §3, §4

HT29 [3] = experiment: as above; type: cell-based; conditions: ~0.74 MBq, 60 min, 37 °C, gamma counting, mean ± SEM
Description: as §3, §4

OE21 [4] = experiment: as above; type: cell-based; conditions: ~0.74 MBq, 60 min, 37 °C, gamma counting, mean ± SEM
Description: as §3, §4

[5] = Radioactive metabolite analysis in tissues by radio-HPLC; conditions: mouse i.v., mean ± s.d., n = 3
Description: For metabolite analysis, radio-HPLC chromatograms were obtained using an Agilent 1100 system equipped with an in-line posiRAM metabolite detector (Lablogic, Sheffield, UK). The same column and mobile phase were used.
In female BALB/c mice at 5 and 30 min p.i. of [^18F]AlF-NOTA-EMP-105, four key tissues (blood plasma, liver, kidney and urine) were analysed for radioactive metabolites by radio-HPLC. The retention time of free [^18F]fluoride and the parent compound [^18F]AlF-EMP-105 were determined by injecting a pure sample of each onto the metabolite radio-HPLC system.
The liver and kidneys were excised, and homogenised in ice cold MeCN:H2O (1 mL, 1:2 v/v) using a Precellys tissue homogeniser fitted with a Cryolys cooling module (Stretton Scientific Ltd., Derbyshire, UK). The homogenate was centrifuged (13,000× g, 5 min), the supernatant was removed, filtered (0.22 µm syringe filter) and diluted in water prior to RP-HPLC analysis. Urine was diluted in water and filtered prior to HPLC analysis. Plasma was obtained from whole blood by centrifugation (2000× g, 10 min) to separate the blood cells from the plasma. Plasma were precipitated with ice cold MeCN:H2O (1 mL, 1:2 v/v), and centrifuged (13,000× g, 5 min) to pellet the proteins. The supernatant was filtered and diluted in water for radio-HPLC analysis. The HPLC injection loop was washed with MeCN:H2O 1:1 v/v (1 mL) and then 5:95 v/v (1 mL) between each injection. The extraction efficiency from each tissue sample was determined by counting the activity (counts per minute, CPM) of a small aliquot (20 µL) of the supernatant of a known volume and the whole protein pellet, in a γ-counter.

[6] = dynamic PET 60 min, TACs, healthy mice, i.v.
Description: Female BALB/c mice (6–8 weeks old) were anaesthetized with 2% isoflurane/O2. Imaging was performed using a Siemens Inveon small-animal multimodality PET/CT system (Siemens Medical Solutions USA, Inc., Knoxville, TN, USA). After completion of the CT scan, [^18F]AlF-EMP-105 (4.6 ± 1.2 MBq) was injected intravenously via the lateral tail vein. Dynamic emission scans were acquired in list-mode format for 60 min. Image data were processed as 0.5 mm sinogram bins and 33 time-frames, and reconstructed using the 2D-ordered subsets expectation maximization (2D-OSEM) algorithm with CT-based attenuation correction. The following frame durations were used: 12 × 5 s, 4 × 15 s, 6 × 30 s, and 11 × 300 s. Images were analysed using Inveon Research Workplace software (Siemens Healthcare Molecular Imaging, Knoxville, TN, USA). PET and CT images were co-registered and used to draw 3-dimensional regions of interests (ROIs) over tissues to obtain time–activity curves (TACs). Decay-corrected tissue time versus radioactivity curves (TACs) were generated and normalized to whole-body activity to obtain normalized uptake values (NUVs).

H1975 [7] = experiment: Flow cytometry uptake of EMI-137 (c-Met expression level); type: cell-based; conditions: 50 nM, 1 h, 37 °C
Description: as §3
(§5) Approximately 500,000 cells were seeded in 6-well plates and cultured for 24 h at 37 °C and 5% CO2. Cells were washed with warm PBS and incubated with 50 nM EMI-137 for 1 h at 37 °C and 5% CO2. Subsequently, cells were washed with ice-cold PBS three times prior to sample acquisition via FACS Canto flow cytometer (Becton Dickinson Immunocytometry Systems, Franklin Lakes, NJ, USA) with FACS Diva Software version 4.0.2. The obtained data were analysed using FlowJo software v7.6 (FlowJo, LLC, Ashland, OR, USA). Unstained controls were used to define gates and adjust fluorescence compensation.

HEPG2a [8] = experiment: as above; type: cell-based; conditions: HEPG2a (negative control), 50 nM, 1 h, 37 °C
Description: as §3, §5

HT29 [9] = experiment: as above; type: cell-based; conditions: 50 nM, 1 h, 37 °C
Description: as §3, §5

OE21 [10] = experiment: as above; type: cell-based; conditions: 50 nM, 1 h, 37 °C
Description: as §3, §5

H1975 cells = experiment: Internalisation assay of EMI-137 by flow cytometry; type: cell-based
Description: as §3
H1975 cells were seeded in a 6-well plate at a seeding density of 500,000 cells/well, 24 h prior to performing internalisation assay. […] Subsequently, cells were washed with ice-cold PBS three times. To determine internalisation levels at 4 °C, surface-bound EMI-137 was removed by washing the cells with 50 mM of glycine prepared in 150 mM NaCl (Sigma) for 5 min followed by three washes with ice-cold PBS. […] Data were presented as mean Fluorescence Intensity (MFI). The internalised fraction was determined by subtracting the surface-bound EMI-137 from total EMI-137. The percentage of internalised fraction was calculated by dividing the amount of internalised EMI-137 by total-bound EMI-137 multiplied by 100%. Unstained controls were used to define gates and adjust fluorescence compensation.

## CC(=O)N[C@@H](C)C(=O)NCC(=O)N[C@@H](CO)C(=O)N[C@H]1CSSC[C@@H](C(=O)N[C@@H](Cc2ccc(O)cc2)C(=O)N[C@@H](CCC(=O)O)C(=O)N[C@H](C(=O)N[C@@H](CCC(=O)O)C(=O)NCC(=O)N[C@H](C(=O)NCC(=O)NCC(=O)NCC(=O)N[C@@H](CCCCNC(=O)CN2CCN(CC(=O)O)CCN(CC(=O)O)CC2)C(N)=O)[C@@H](C)O)[C@@H](C)O)NC(=O)[C@H](Cc2c[nH]c3ccccc23)NC(=O)[C@@H]2CSSC[C@H](NC(=O)[C@H](Cc3ccc(O)cc3)NC1=O)C(=O)N[C@@H](CO)C(=O)NCC(=O)N1CCC[C@H]1C(=O)N1CCC[C@H]1C(=O)N[C@@H](CCCNC(=N)N)C(=O)N[C@@H](Cc1ccccc1)C(=O)N[C@@H](CCC(=O)O)C(=O)N2 [[^18F]AlF-EMP-105] (Ac-AGSCYCSGPPRFECWCYETEGTGGGK(NOTA)-NH2; disulfide 4-16, 6-14)
physchem; EDTA (0.02% in 0.5 mM DPBS)
  remaining at 1 h, 9.9 MBq/mL: 99%
  remaining at 2 h, 9.9 MBq/mL: 99%
  remaining at 3 h, 9.9 MBq/mL: 98%
  remaining at 4 h, 9.9 MBq/mL: 98%
physchem; PBS
  remaining at 1 h, 9.9 MBq/mL: 98%
  remaining at 2 h, 9.9 MBq/mL: 97%
  remaining at 3 h, 9.9 MBq/mL: 95%
  remaining at 4 h, 9.9 MBq/mL: 95%
physchem; RPMI media
  remaining at 1 h, 9.9 MBq/mL: 97%
  remaining at 2 h, 9.9 MBq/mL: 97%
  remaining at 3 h, 9.9 MBq/mL: 97%
  remaining at 4 h, 9.9 MBq/mL: 92%
In vitro
  remaining at 1 h, 9.9 MBq/mL: 99%
  remaining at 2 h, 9.9 MBq/mL: 99%
  remaining at 3 h, 9.9 MBq/mL: 98%
  remaining at 4 h, 9.9 MBq/mL: 97%
H1975 [1]
  Change in radioactive uptake when blocked with 100-fold of EMI-137: significant decrease; also recorded: statistically significant decreases
HEPG2a [2]
  Change in radioactive uptake when blocked with 100-fold of EMI-137: not significant; also recorded: not observed
HT29 [3]
  Change in radioactive uptake when blocked with 100-fold of EMI-137: significant decrease; also recorded: statistically significant decreases
OE21 [4]
  Change in radioactive uptake when blocked with 100-fold of EMI-137: significant decrease; also recorded: statistically significant decreases
[5]; kidney, 5 min p.i.
  Percentage of [^18F]AlF-EMP-105 Remaining: 9.8 ± 12.9%
[5]; kidney, 30 min p.i.
  Percentage of [^18F]AlF-EMP-105 Remaining: 4.3 ± 4.3%
[5]; liver, 5 min p.i.
  Percentage of [^18F]AlF-EMP-105 Remaining: 6.2 ± 10.8%
[5]; liver, 30 min p.i.
  Percentage of [^18F]AlF-EMP-105 Remaining: 0.4 ± 0.7%
[5]; plasma, 5 min p.i.
  Percentage of [^18F]AlF-EMP-105 Remaining: 98.3 ± 1.1%
[5]; plasma, 30 min p.i.
  Percentage of [^18F]AlF-EMP-105 Remaining: 93.3 ± 7.4%
[5]; urine, 30 min p.i.
  Percentage of [^18F]AlF-EMP-105 Remaining: 7.9 ± 9.2%
[6]; heart, lung and liver
  Time at which activity peaked, heart, lung and liver: 1 min
[6]; kidneys
  Time at which activity peaked, kidneys: 2.5 min

## AGSCYCSGPPRFECWCYETEGT-Cy5 (also: cyclic, ring closure not given here) [EMI-137]
H1975 [7]
  Fluorescent uptake of EMI-137: High uptakes
HEPG2a [8]
  Fluorescent uptake of EMI-137: low uptake
HT29 [9]
  Fluorescent uptake of EMI-137: High uptakes
OE21 [10]
  Fluorescent uptake of EMI-137: High uptakes
H1975 cells; 0, 5, 15 and 30 min at 37 °C after 30 min at 4 °C, glycine wash
  Internalisation of EMI-137: increased with time
H1975 cells; 50 nM, 30 min
  Difference in uptake at 37 °C versus 4 °C: the difference was not significant
